Reference: the DeepSol protein solubility set

experiment: soluble on expression in E. coli; label from the status in PepcDB or PDB records

Sequence | soluble on expression in E. coli
MVPLESSTLFGVYGGFTDSMMMRETTTNNQDPSGDTCSVSDPAPGSTDYYNISSSPVKDDGTAPKNDVVCSINVDDNKDKSWLRLGIGPEENTDGSYKLQRCCSKNGSGRENSLELSLFSSSSTAVSSSIDHLPTQPLQLPYHHDQLLTMRGPSLVYNHQLMKPQTLLNRGFSFPSSKPWIPQYMAPFRPSSLSDRDVTNNNSLSRSCCVDEGGAGPSSEFRVLDPPRRPHSGLWFLLQASQFQ | soluble
MVPLTEENVESVLDEIRPYLMSDGGNVALHEIDGNVVRVKLQGACGSCPSSTMTMKMGIERRLMEKIPEIVAVEALPDEETGLELNEENIEKVLEEIRPYLIGTADGSLDLVEIEDPIVKIRITGPAAGVMTVRVAVTQKLREKIPSIAAVQLI | soluble
MVPPITSDEFCETSGCFGDSANLHTTLERLKININSDAKKLVDTNGDLKKHQRFLRIAKVTSLRSKDPNTQVGCVIVDKDNCIVSVGYNGFPIGVDDDVFRWDKEDPEDNKHLYVVHAEMNAIINKRCTTLHDCTVYVTLFPCNKCAQMLIQSRVKKVYFLENRDELAFRASKKMLDHARLPYEQIVMPQEAYVIEL | not soluble
MVQAEGLTKRYRKAVAVEGLTFGVGPGEVYALLGPNGAGKTTTLRLLSTLVRPSAGRALVAGFDVVREPLEVRRNLGLVNGGMRVYERLTGREVLEFFAGFYGLKGRAFLGALDWVVDLLEMEETLDKKVGEMSTGMRQKVVIARAILHRPKVLLLDEATAGLDIFARRALLDFVKAYRDLGHAVIYSTHVMGEAEEVADRVGFLHRGRLVYEGSKEEALALGEGSLERAFVRQVRGA | soluble
MVQALPSNIGIQQVTLKVADLDKMVNFYTKTIGLKLLKQGEGRAWLAPQGTNDAILVLKELTAGEENQGTTGLYHIAFLLPTRKDLGNMLLWLLQENVQIGAADHGYSEALYLSDPENNGIEIYWDKPEEVWDIRPNGEIIGVTEELDGDSLAAEADGHWLGISEGSKIGHIHLKVADLDATETFYKNLGFGLKSNFGQQAKFFAAGQYHHHIGTNTWSGKQLPTIQENQFGLENYTFRLPTAADLEIVQANAEEAKLHFIAKDHLLALEDPSGMIIQFTY | not soluble
MVQEANVRDKMRGTGVSVTRSGDNIILNMPNNVTFDSSSATLKPAGANTLTGVAMVLKEYPKTAVNVIGYTDSTGGHDLNMRLSQQRADSVASALITQGVDASRIRTQGLGPANPIASNSTAEGKAQNRRVEITLSPLLEHHHHHH | not soluble
MVQIIFDSKTGNVQRFVNKTGFQQIRKVDEMDHVDTPFVLVTYTTNFGQVPASTQSFLEKYAHLLLGVAASGNKVWGDNFAKSADTISRQYQVPILHKFELSGTSKDVELFTQEVERVVTKSSAKMDPVK | soluble
MVQRVTIAPQGPEFSRFVMGYWRLMDWNMSARQLVSFIEEHLDLGVTTVDHADIYGGYQCEAAFGEALTLAPHLREKLQIVTKCGIATTARAENKLGHYITDRRHIILSAEQSLKNLATDYLDMLLIHRPDPLMDADDVAEAFQHLHQSGKVRHFGVSNFTPAQFTLLQSRLPFTLATNQVEISPVHQPLLLDGTLDQLQQLRIRPMAWSCLGGGRLFNDEAYQPLRQELSVIAQELNASSIEQVVYAWILRLPSQPLPIIGSGKIERVRAALEAETLSLTRQQWFRIRKAALGYDVP | not soluble
MVRRLTSPRLEFEAAAIYEYPEHLHSFLNDLPTRPGVYLFHGESDTMPLYIGKSVNIRSRVLSHLRTPDEAAMLRQSRRISWICTAGEIGALLLEARLIKEQQPLFNKRLRRNRQLCALQLNEKRVDVVYAKEVDFSRAPNLFGLFANRRAALQALQSIADEQKLCYGLLGLEPLSRGRACFRSALKRCAGACCGKESHEEHALRLRQSLERLRVVCWPWQGAVALKEQHPEMTQYHIIQNWLWLGAVNSLEEATTLIRTPAGFDHDGYKILCKPLLSGNYEITELDPANDQRAS | not soluble
MVRVIIKGGVWKNTEDEILKAAIMKYGKNQWSRIASLLHRKSAKQCKARWFEWLDPGIKKTEWSREEDEKLLHLAKLMPTQWRTIAPIVGRTSAQCLERYEHLLDEAQRKAEGLDEEATETRKLKPGEIDPTPETKPARPDPIDMDDDELEMLSEARARLANTQGKKAKRKARERQLSDARRLASLQKRREMRAAGLAFARKFKPKRNQIDYSEEIPFEKHVPAGFHNPSEDRYVVEDANQKAIEDHQKPRGREIEMEMRREDREKLKKRKEQGEADAVFNIKEKKRSKLVLPEPQISDRELEQIVKIGHASDSVRQYIDGTATSGLLTDYTESARANAVAARTMRTPMLKDTVQLELENLMALQNTESALKGGLNTPLHESELGKGVLPTPKVAATPNTVLHAIAATPGTQSQFPGSTPGGFATPAGSVAATPFRDQMRINEEIAGSALEQKASLKRALASLPTPKNDFEVVGPDDDEVEGAVEDESNQDEDGWIEDASERAENKAKRNAENRVRNMKMRSQVIQRSLPKPTKVNEQATRATNSSADDMVKAEMSKLLAWDVDNKPPSVIYSREELDAAADLIKQEAESGPELNSLMWKVVEQCTSEIILSKDKFTRIAILPREEQMKALNDEFQMYRGWMNQRAKRAAKVEKKLRVKLGGYQAIHDKLCKKYQEVTTEIEMANIEKKTFERLGEHELKAINKRVGRLQQEVTTQETREKDLQKMYSKLSNKQWKLSQIEIHDAASTTSAPITY | not soluble
MVRVRPSCQVAQSDCGLACVHMLIQSFGISASLRKMRVTYAPGRDGLSLRALTQILSDFGLNSKVVKCSYSNLSRVPLPAIIAWEPAHYVVLEKRLGDSWRIVDPSSGRRWCSKKEIEANFRSFCVTGARGNTKVSEGQVSDDPSWKSLAVLLAGK | not soluble
MVRVYIGRLPNRASDRDVEHFFRGYGKLSDVIMKNGFGFVDFQDQRDADDAVHDLNGKELCGERVILEFPRRKVGYNEERSGSGFRGREPTFRKGGERQFSNRYSRPCSTRFRLVIDNLSTRYSWQDIKDHIRKLGIEPTYSEAHKRNVNQAIVCFTSHDDLRDAMNKLQGEDLNGRKLKCTDETRDRSRSRSPRRRSRSRSPTRSRSPPARRRSPGSDRSDRKSRSASPKKRSDKRARSESKSRSRSGGRRSRSNSPPNRSPSPKKRRDNSSPRSGSASP | not soluble
MVSEMLSEAGHSVSYLKGGMKAWSEHLEPVKVGDLKDGGEMYQFVRIGKGCLSYMVISNGEAAIIDATRMVNFFIDFAKGKGATITHVFDTHLHADHISGGRVIAEKTKATYWLPPKDAEEVEFDYQPLEEGNDIIIGNTTIKIQPIYSPGHTIGSTSFIVDDQYLLSGDILFIDSIGRPDLAGMAEDWVGDLRKTLYSRYKALSKDLIVLPAHFMIIDELNENGSVGKQLSTLFSENHGLNIADETEFRHLVTDHLPPQPNAYQEIRETNMGKISPDEEKQREMEIGPNRCAIRLEHHHHHH | not soluble
MVSRLSTGILDFDKLIQGGIPQGFFIALTGEPGTGKTIFSLHFIAKGLRDGDPCIYVTTEESRDSIIRQAKQFNWDFEEYIEKKLIIIDALMKEKEDQWSLVNLTPEELVNKVIEAKQKLGYGKARLVIDSVSALFLDKPAMARKISYYLKRVLNKWNFTIYATSQYAITTSQAFGFGVEHVADGIIRFRRMIRNGELHRYILIEKMRQTDHDKHVWEIDIVNGKGIVLKGRLEE | soluble
MVSSLLMSFAPATVRVYATSTKGGSGGPKEEKNPIDFVLGFMTKQDQFYETNPLLKKVDEKEGTTTGGRGTVRGGKNSAPTPVPKKSEGGFGGLGSLFKK | not soluble
MVSYKLTYFNGRGAGEVSRQIFAYAGQQYEDNRVTQEQWPALKETCAAPFGQLPFLEVDGKKLAQSHAIARFLAREFKLNGKTAWEEAQVNSLADQYKDYSSEARPYFYAVMGFGPGDVETLKKDIFLPAFEKFYGFLVNFLKASGSGFLVGDSLTWIDLAIAQHSADLIAKGGDFSKFPELKAHAEKIQAIPQIKKWIETRPVTPF | soluble
MVTFMITSALHRAADWAKSVFSSAALGDPRRTARLVNVAAQLAKYSGKSITISSEGSKAAQEGAYRFIRNPNVSAEAIRKAGAMQTVKLAQEFPELLAIEDTTSLSYRHQVAEELGKLGSIQDKSRGWWVHSVLLLEATTFRTVGLLHQEWWMRPDDPADADEKESGKWLAAAATSRLRMGSMMSNVIAVCDREADIHAYLQDKLAHNERFVVRSKHPRKDVESGLYLYDHLKNQPELGGYQISIPQKGVVDKRGKRKNRPARKASLSLRSGRITLKQGNITLNAVLAEEINPPKGETPLKWLLLTSEPVESLAQALRVIDIYTHRWRIEEFHKAWKTGAGAERQRMEEPDNLERMVSILSFVAVRLLQLRESFTPPQALRAQGLLKEAEHVESQSAETVLTPDECQLLGYLDKGKRKRKEKAGSLQWAYMAIARLGGFMDSKRTGIASWGALWEGWEALQSKLDGFLAAKDLMAQGIKIG | soluble
MVTINNARKILQRVDTLPLYLHAYAFHLNMRLERVLPADLLDIASENNLRGVKIHVLDGERFSLGNMDDKELSAFGDKARRLNLDIHIETSASDKASIDEAVAIALKTGASSVRFYPRYEGNLRDVLSIIANDIAYVRETYQDSGLTFTIEQHEDLKSHELVSLVKESEMESLSLLFDFANMINANEHPIDALKTMAPHITQVHIKDALIVKEPGGLGHKACISGQGDMPFKALLTHLICLGDDEPQVTAYGLEEEVDYYAPAFRFEDEDDNPWIPYRQMSETPLPENHLLDARLRKEKEDAINQINHVRNVLQQIKQEANHLLNH | soluble
MVTLCHVFGVHRSSYRYWKNRPEKPDGRRAVLRSQVLELHGISHGSAGARSIATMATRRGYQMGRWLAGRLMKELGLVSCQQPTHRYKRGGHEHVAIPNYLERQFAVTEPNQVWCGDVTYIWTGKRWAYLAVVLDLFARKPVGWAMSFSPDSRLTMKALEMAWETRGKPGGVMFHSDQGSHYTSRQFRQLLWRYQIRQSMSRRGNCWDNSPMERFFRSLKNEWMPVVGYVSFSKAAHAITDYIVGYYSALRPHEYNGGLPPNESENRYWKNSNSVASFC | not soluble
MVVFDLSWTLVQADSFELLCQAAAVDADAVAEVRRCHSLGSDDDLRACAALLRGRSSTGLAERLHALIEYTDGAASVCRVLKKLGYRTTVLSPGRSFLRELVKADLGIDFVAANRHEMDSNEHFTGAILELLVNGERKAELLTMLAMREQLSPQQIIAVGDGPVSAKMLDSAGPSIAFGAPAARDGTNIGGKIQSKSLTCIWFLMGIHERDLRSFS | soluble
MVVGVAGYYGFRNAGDEAILEAIARELKARGHEVVALSGDPKRTREDHGLRAYHRLNPLALLRADLWLLGGGGLLQDATSALSLTYYLSVLRLARLFRKRVVVFNQSLGPLSPWGERRVRKALQGVPVILRDQDSLEYARRLGIPAALGADPALLLPPPPVPREEDLVLVIPRAGVREEALTTLYVAANHLVHEGKQVLVLLLQPGYDDEVAEVFRLHRIERTSDPRRLLYLAAQAGYVISMRLHGLILAAAAGTPFAALSYDPKVAAFAKETGAYYQELPGEPIKLYKAALYGRFPDWEKVARLKERARQSFDLALGEGVPIKGSGRG | soluble
